Consider one protein from article PMC7812859, “Structure of SARS-CoV-2 ORF8, a rapidly evolving immune evasion protein” (Proceedings of the National Academy of Sciences of the …, 2020).

The series deals with the molecule itself. Briefly: crystal structure.

B1: SeMet-labeled V32M/L84M ORF8 double mutant (domain or fragment)
chain: QECSLQSCTQHQPYMVDDPCPIHFYSKWYIRVGARKSAPLIELCVDEAGSKSPIQYIDIGNYTVSCMPFTINCQEPKLGSLVVRCSFYEDFLEYHDVRVVLDFI
modifications: selenomethionine (SeMet-labeled)
notes: also called ORF8 V32M, L84M double-mutant; SeMet-labeled ORF8 double-mutant protein
On to B1, for which the binding result is on record as “binds”.
